Laboratory results as given in patent US20260166128A1, “HUMAN AMYLIN ANALOG, AND DERIVATIVE THEREOF AND USE THEREOF” (priority 2022, published 2026).
Numbered stars: 1 amine (or outer) side, 2 acyl side, 3 side chain; on linkers, the order of the positions; unused ones are H or OH. Bridge positions count the residues as written; N and C are the ends. Square brackets hold non-standard residues; d marks the D form. Primed or numbered codes have the meaning given here. Side chains are listed from the residue outwards. Peptide text beside a SMILES is read from it. * marks the point of attachment. C20 diacid = O=C(O)CCCCCCCCCCCCCCCCCCC(=O)*; C18 diacid = O=C(O)CCCCCCCCCCCCCCCCC(=O)*; X1 = N[C@@H]1CCN([*:1])[C@@H]1C(=O)[*:2]; C16 diacid = O=C(O)CCCCCCCCCCCCCCC(=O)*; γGlu = O=C(O)[C@H](CCC(=O)[*:2])N[*:1]; C14 diacid = O=C(O)CCCCCCCCCCCCC(=O)*; C12 diacid = O=C(O)CCCCCCCCCCC(=O)*; HOOC(CH2)8CO = O=C(O)CCCCCCCCC(=O)*; Trx′ = not defined here

Experiment: Freeze-thaw stability of derivatives (freeze-thaw yield by liquid chromatography)
Format: physicochemical
Details: for Dissolution property: appearance after dissolution at 0.2 mg/ml in 20 mM phosphate buffer solution (PB) (pH 7.0); for Freeze storage property: appearance after overnight storage at −20° C. and thawing to room temperature, 0.2 mg/ml in 20 mM PB (pH 7.0); for Freeze storage yield: concentration of polypeptide after freezing and thawing / concentration before, by liquid chromatography, −20° C. overnight
Experimental: The freeze-dried powder of the polypeptide analog derivative prepared in Example 1 was mixed with a buffer solution according to a mass-volume ratio of 0.2 mg/ml, the polypeptide was dissolved with 20 mM phosphate buffer solution (PB) (pH 7.0), the sample was stored at −20° C. for overnight storage, and then the sample was taken out to be restored to room temperature for thawing. During the experiment, property changes of the polypeptide after dissolution and freezing and thawing were observed and recorded respectively, and concentrations of the polypeptide before and after the freezing and thawing were detected by the following liquid chromatography method: Materials and equipment: high-performance liquid chromatographic instrument (Agilent 1200), ultrapure water (18.2 MΩ self-manufactured ultrapure water), acetonitrile (HPLC grade), and trifluoroacetic acid (HPLC grade); and reversed-phase chromatographic column: […] A sample to be tested was centrifuged at 10,000 rpm and 4° C. for 3 minutes, and a supernatant was taken and added into a liquid-phase sample injection bottle. […] A freeze-thaw yield was calculated by the following formula: freeze-thaw yield=concentration of polypeptide after the freezing and thawing/concentration of polypeptide before the freezing and thawing.

Molecule	Dissolution property	Freeze storage property	Freeze storage yield
CC[C@H](C)[C@H](NC(=O)[C@@H]1CCCN1C(=O)[C@H](CCCCNC(=O)CC[C@H](NC(=O)CCCCCCCCCCCCCCCCCCC(=O)O)C(=O)O)NC(=O)[C@H](CC(C)C)NC(=O)[C@H](CC(N)=O)NC(=O)[C@H](CC(N)=O)NC(=O)[C@H](CO)NC(=O)[C@H](CO)NC(=O)[C@H](Cc1c[nH]cn1)NC(=O)[C@H](CCCNC(=N)N)NC(=O)[C@H](CC(C)C)NC(=O)[C@H](Cc1ccccc1)NC(=O)[C@H](CC(=O)O)NC(=O)[C@H](C)NC(=O)[C@H](CC(C)C)NC(=O)[C@H](CCCNC(=N)N)NC(=O)[C@H](CCC(N)=O)NC(=O)[C@@H](NC(=O)[C@H](C)NC(=O)[C@@H]1CSSC[C@H](NC(=O)[C@@H](N)CCCNC(=N)N)C(=O)N[C@@H](CC(N)=O)C(=O)N[C@@H]([C@@H](C)O)C(=O)N[C@@H](C)C(=O)N[C@@H]([C@@H](C)O)C(=O)N1)[C@@H](C)O)C(=O)N[C@@H](CC(C)C)C(=O)N1CCC[C@H]1C(=O)N1CCC[C@H]1C(=O)N[C@H](C(=O)N[C@@H](CC(N)=O)C(=O)N[C@H](C(=O)NCC(=O)N[C@@H](CO)C(=O)N[C@@H](CC(N)=O)C(=O)N[C@H](C(=O)N1CCC[C@H]1C(N)=O)[C@@H](C)O)C(C)C)[C@@H](C)O [PD042] (H-RCNTATCATQRLADFLRHSSNNLK([γGlu-C20 diacid])PILPPTNVGSNTP-NH2; disulfide 2-7 (inferred); N-terminus assumed)	Clear	Clear	95.19%
PD148: KCNTATCATQRLADFLRHSSNNLKPILPPTNVGSNT-trans-Hyp-NH2; N-terminal, 1K-ϵ; γGlu + C10 diacid ({HOOC(CH2)8CO-γGlu}-K([γGlu-HOOC(CH2)8CO])CNTATCATQRLADFLRHSSNNLKPILPPTNVGSNT-{trans‑Hyp-NH2}; disulfide 2-7 (inferred))	Clear	Clear	103.34%
PD138: KCNTATCATQRLADFLRHSSNNLGPILPPTNVGSNT-trans-Hyp-NH2; N-terminal, 1K-ϵ; γGlu + C16 diacid ({C16 diacid-γGlu}-K([γGlu-C16 diacid])CNTATCATQRLADFLRHSSNNLGPILPPTNVGSNT-{trans‑Hyp-NH2}; disulfide 2-7 (inferred))	Clear	Clear	106.03%
PD136: KCNTATCATQRLADFLRHSSNNLGPILPPTNVGSNT-trans-Hyp-NH2; N-terminal, 1K-ϵ; γGlu + C12 diacid ({C12 diacid-γGlu}-K([γGlu-C12 diacid])CNTATCATQRLADFLRHSSNNLGPILPPTNVGSNT-{trans‑Hyp-NH2}; disulfide 2-7 (inferred))	Clear	Clear	108.07%
PD152: KCNTATCATQRLADFLRHSSNNLKPILPPTNVGSNT-trans-Hyp-NH2; N-terminal, 1K-ϵ; γGlu + C18 diacid ({C18 diacid-γGlu}-K([γGlu-C18 diacid])CNTATCATQRLADFLRHSSNNLKPILPPTNVGSNT-{trans‑Hyp-NH2}; disulfide 2-7 (inferred))	Clear	Clear	97.96%
CC[C@H](C)[C@H](NC(=O)[C@@H]1CCCN1C(=O)[C@H](CCCCNC(=O)CC[C@H](NC(=O)CCCCCCCCCCCCCCCCCCC(=O)O)C(=O)O)NC(=O)[C@H](CC(C)C)NC(=O)[C@H](CC(N)=O)NC(=O)[C@H](CC(N)=O)NC(=O)[C@H](CO)NC(=O)[C@H](CO)NC(=O)[C@H](Cc1c[nH]cn1)NC(=O)[C@H](CCCNC(=N)N)NC(=O)[C@H](CC(C)C)NC(=O)[C@H](Cc1ccccc1)NC(=O)[C@H](CC(=O)O)NC(=O)[C@H](C)NC(=O)[C@H](CC(C)C)NC(=O)[C@H](CCCNC(=N)N)NC(=O)[C@H](CCC(N)=O)NC(=O)[C@@H](NC(=O)[C@H](C)NC(=O)[C@@H]1CSSC[C@H](NC(=O)[C@@H](N)CCCNC(=N)N)C(=O)N[C@@H](CC(N)=O)C(=O)N[C@@H]([C@@H](C)O)C(=O)N[C@@H](C)C(=O)N[C@@H]([C@@H](C)O)C(=O)N1)[C@@H](C)O)C(=O)N[C@@H](CC(C)C)C(=O)N1CCC[C@H]1C(=O)N1CCC[C@H]1C(=O)N[C@H](C(=O)N[C@@H](CC(N)=O)C(=O)N[C@H](C(=O)NCC(=O)N[C@@H](CO)C(=O)N[C@@H](CC(N)=O)C(=O)N[C@H](C(=O)N1CCC[C@H]1C(N)=O)[C@@H](C)O)C(C)C)[C@@H](C)O [PD048] (H-RCNTATCATQRLADFLRHSSNNLK([γGlu-C20 diacid])PILPPTNVGSNTP-NH2; disulfide 2-7 (inferred); N-terminus assumed)	Clear	Clear	102.16%
CC[C@H](C)[C@H](NC(=O)[C@@H]1CCCN1C(=O)[C@H](CCCCNC(=O)CC[C@H](NC(=O)CCCCCCCCCCCCCCCCCCC(=O)O)C(=O)O)NC(=O)[C@H](CC(C)C)NC(=O)[C@H](CC(N)=O)NC(=O)[C@H](CC(N)=O)NC(=O)[C@H](CO)NC(=O)[C@H](CO)NC(=O)[C@H](Cc1c[nH]cn1)NC(=O)[C@H](CCCNC(=N)N)NC(=O)[C@H](CC(C)C)NC(=O)[C@H](Cc1ccccc1)NC(=O)[C@H](CC(=O)O)NC(=O)[C@H](C)NC(=O)[C@H](CC(C)C)NC(=O)[C@H](CCCNC(=N)N)NC(=O)[C@H](CCC(N)=O)NC(=O)[C@@H](NC(=O)[C@H](C)NC(=O)[C@@H]1CSSC[C@H](NC(=O)[C@@H](N)CCCNC(=N)N)C(=O)N[C@@H](CC(N)=O)C(=O)N[C@@H]([C@@H](C)O)C(=O)N[C@@H](C)C(=O)N[C@@H]([C@@H](C)O)C(=O)N1)[C@@H](C)O)C(=O)N[C@@H](CC(C)C)C(=O)N1CCC[C@H]1C(=O)N1CCC[C@H]1C(=O)N[C@H](C(=O)N[C@@H](CC(N)=O)C(=O)N[C@H](C(=O)NCC(=O)N[C@@H](CO)C(=O)N[C@@H](CC(N)=O)C(=O)N[C@H](C(=O)N1CC[C@@H](N)[C@H]1C(N)=O)[C@@H](C)O)C(C)C)[C@@H](C)O [PD062] (H-RCNTATCATQRLADFLRHSSNNLK([γGlu-C20 diacid])PILPPTNVGSNT[X1]-NH2; disulfide 2-7; N-terminus assumed)	Clear	Clear	102.63%
PD137: KCNTATCATQRLADFLRHSSNNLGPILPPTNVGSNT-trans-Hyp-NH2; N-terminal, 1K-ϵ; γGlu + C14 diacid ({C14 diacid-γGlu}-K([γGlu-C14 diacid])CNTATCATQRLADFLRHSSNNLGPILPPTNVGSNT-{trans‑Hyp-NH2}; disulfide 2-7 (inferred))	Clear	Clear	102.20%
PD133: KCNTATCATQRLADFLRHSSNNLGPILPPTNVGSNT-trans-Hyp-NH2; N-terminal; Trx + C20 diacid ({C20 diacid-Trx′}-KCNTATCATQRLADFLRHSSNNLGPILPPTNVGSNT-{trans‑Hyp-NH2}; disulfide 2-7 (inferred); reading uncertain; also: printed as KCNTATCATQRLADFLRHSSNNLGPILPPTNVGSNT-trans-Hyp-NH2)	Clear	Clear	98.24%
PD139: KCNTATCATQRLADFLRHSSNNLGPILPPTNVGSNT-trans-Hyp-NH2; N-terminal, 1K-ϵ; γGlu + C18 diacid ({C18 diacid-γGlu}-K([γGlu-C18 diacid])CNTATCATQRLADFLRHSSNNLGPILPPTNVGSNT-{trans‑Hyp-NH2}; disulfide 2-7 (inferred))	Clear	Clear	104.78%
PD135: KCNTATCATQRLADFLRHSSNNLGPILPPTNVGSNT-trans-Hyp-NH2; N-terminal, 1K-ϵ; γGlu + C10 diacid ({HOOC(CH2)8CO-γGlu}-K([γGlu-HOOC(CH2)8CO])CNTATCATQRLADFLRHSSNNLGPILPPTNVGSNT-{trans‑Hyp-NH2}; disulfide 2-7 (inferred))	Clear	Clear	110.57%
PD150: KCNTATCATQRLADFLRHSSNNLKPILPPTNVGSNT-trans-Hyp-NH2; N-terminal, 1K-ϵ; γGlu + C14 diacid ({C14 diacid-γGlu}-K([γGlu-C14 diacid])CNTATCATQRLADFLRHSSNNLKPILPPTNVGSNT-{trans‑Hyp-NH2}; disulfide 2-7 (inferred))	Clear	Clear	103.74%
PD149: KCNTATCATQRLADFLRHSSNNLKPILPPTNVGSNT-trans-Hyp-NH2; N-terminal, 1K-ϵ; γGlu + C12 diacid ({C12 diacid-γGlu}-K([γGlu-C12 diacid])CNTATCATQRLADFLRHSSNNLKPILPPTNVGSNT-{trans‑Hyp-NH2}; disulfide 2-7 (inferred))	Clear	Clear	99.99%
PD151: KCNTATCATQRLADFLRHSSNNLKPILPPTNVGSNT-trans-Hyp-NH2; N-terminal, 1K-ϵ; γGlu + C16 diacid ({C16 diacid-γGlu}-K([γGlu-C16 diacid])CNTATCATQRLADFLRHSSNNLKPILPPTNVGSNT-{trans‑Hyp-NH2}; disulfide 2-7 (inferred))	Clear	Clear	101.88%
